Biological target: soluble recombinant TGF-β1 (UniProt P01137)
Test: cell-based or functional assay

Chain of soluble recombinant TGF-β1 (P01137 279-390 limits assumed): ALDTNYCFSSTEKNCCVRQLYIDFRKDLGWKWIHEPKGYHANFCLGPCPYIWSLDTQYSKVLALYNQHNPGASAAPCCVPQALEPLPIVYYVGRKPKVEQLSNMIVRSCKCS
Chain of TGF-beta dominant negative receptor (TGFβ DNR) (P37173 23-194 limits assumed): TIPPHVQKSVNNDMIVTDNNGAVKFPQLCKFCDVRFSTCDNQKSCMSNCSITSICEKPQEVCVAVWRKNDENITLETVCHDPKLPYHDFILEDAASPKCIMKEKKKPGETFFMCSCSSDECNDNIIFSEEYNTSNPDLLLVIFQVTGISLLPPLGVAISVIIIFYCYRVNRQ

**Q.** How did the pSMAD2 (MFI/µg protein), TGFβ +; CAR-DNR T cells; Donor 1 (MFI/µg protein) turn out when “TGF-beta dominant negative receptor (TGFβ DNR) (from UniProt P37173 23-194)” was run?
**A.** The pSMAD2 (MFI/µg protein), TGFβ +; CAR-DNR T cells; Donor 1 (MFI/µg protein) was 2210.

**Q.** And the pSMAD2 (MFI/µg protein), TGFβ +; Tri-2A T cells; Donor 1 (MFI/µg protein)?
**A.** The pSMAD2 (MFI/µg protein), TGFβ +; Tri-2A T cells; Donor 1 (MFI/µg protein) was 1970.

**Q.** What about the pSMAD2 (MFI/µg protein), TGFβ +; Tri-2A T cells; Donor 2 (MFI/µg protein) of the same substance?
**A.** Its pSMAD2 (MFI/µg protein), TGFβ +; Tri-2A T cells; Donor 2 (MFI/µg protein) is 2080.

**Q.** And the pSMAD2 (MFI/µg protein), TGFβ +; Tri-2A T cells; Donor 3 (MFI/µg protein)?
**A.** Its pSMAD2 (MFI/µg protein), TGFβ +; Tri-2A T cells; Donor 3 (MFI/µg protein) is 1730.

**Q.** And the pSMAD2 (MFI/µg protein), TGFβ +; Tri-IRES T cells; Donor 1 (MFI/µg protein)?
**A.** The pSMAD2 (MFI/µg protein), TGFβ +; Tri-IRES T cells; Donor 1 (MFI/µg protein) was 3240.

**Q.** And the pSMAD2 (MFI/µg protein), TGFβ +; Tri-IRES T cells; Donor 2 (MFI/µg protein)?
**A.** The pSMAD2 (MFI/µg protein), TGFβ +; Tri-IRES T cells; Donor 2 (MFI/µg protein) was 3400.

**Q.** What about the pSMAD2 (MFI/µg protein), TGFβ +; Tri-IRES T cells; Donor 3 (MFI/µg protein) of the same substance?
**A.** The pSMAD2 (MFI/µg protein), TGFβ +; Tri-IRES T cells; Donor 3 (MFI/µg protein) was 2270.

**Q.** And the pSMAD2 (MFI/µg protein), TGFβ +; Tri-mSCV T cells; Donor 1 (MFI/µg protein)?
**A.** The pSMAD2 (MFI/µg protein), TGFβ +; Tri-mSCV T cells; Donor 1 (MFI/µg protein) was 2480.

**Q.** What about the pSMAD2 (MFI/µg protein), TGFβ +; Tri-mSCV T cells; Donor 2 (MFI/µg protein) of the same substance?
**A.** The pSMAD2 (MFI/µg protein), TGFβ +; Tri-mSCV T cells; Donor 2 (MFI/µg protein) was 1720.

**Q.** What about the pSMAD2 (MFI/µg protein), TGFβ +; Tri-mSCV T cells; Donor 3 (MFI/µg protein) of the same substance?
**A.** Its pSMAD2 (MFI/µg protein), TGFβ +; Tri-mSCV T cells; Donor 3 (MFI/µg protein) is 1200.

**Q.** What about the pSMAD2/3 (MFI CAR+), TGFb +; CAR-DNR T cells; Donor 1 of the same substance?
**A.** The pSMAD2/3 (MFI CAR+), TGFb +; CAR-DNR T cells; Donor 1 was 86.9 MFI.

**Q.** And the pSMAD2/3 (MFI CAR+), TGFb +; CAR-DNR T cells; Donor 2?
**A.** Its pSMAD2/3 (MFI CAR+), TGFb +; CAR-DNR T cells; Donor 2 is 105 MFI.

**Q.** And the pSMAD2/3 (MFI CAR+), TGFb +; CAR-DNR T cells; Donor 3?
**A.** The pSMAD2/3 (MFI CAR+), TGFb +; CAR-DNR T cells; Donor 3 was 106 MFI.

**Q.** What about the pSMAD2/3 (MFI CAR+), TGFb +; Tri-2A T cells; Donor 1 of the same substance?
**A.** Its pSMAD2/3 (MFI CAR+), TGFb +; Tri-2A T cells; Donor 1 is 106 MFI.

**Q.** And the pSMAD2/3 (MFI CAR+), TGFb +; Tri-2A T cells; Donor 2?
**A.** Its pSMAD2/3 (MFI CAR+), TGFb +; Tri-2A T cells; Donor 2 is 208 MFI.

**Q.** What about the pSMAD2/3 (MFI CAR+), TGFb +; Tri-2A T cells; Donor 3 of the same substance?
**A.** The pSMAD2/3 (MFI CAR+), TGFb +; Tri-2A T cells; Donor 3 was 189 MFI.

**Q.** And the pSMAD2/3 (MFI CAR+), TGFb +; Tri-IRES T cells; Donor 1?
**A.** The pSMAD2/3 (MFI CAR+), TGFb +; Tri-IRES T cells; Donor 1 was 70.6 MFI.

**Q.** What about the pSMAD2/3 (MFI CAR+), TGFb +; Tri-IRES T cells; Donor 2 of the same substance?
**A.** Its pSMAD2/3 (MFI CAR+), TGFb +; Tri-IRES T cells; Donor 2 is 89.7 MFI.

**Q.** And the pSMAD2/3 (MFI CAR+), TGFb +; Tri-IRES T cells; Donor 3?
**A.** Its pSMAD2/3 (MFI CAR+), TGFb +; Tri-IRES T cells; Donor 3 is 89.4 MFI.

**Q.** And the pSMAD3 (MFI/µg protein), TGFβ +; CAR-DNR T cells; Donor 1 (MFI/µg protein)?
**A.** Its pSMAD3 (MFI/µg protein), TGFβ +; CAR-DNR T cells; Donor 1 (MFI/µg protein) is 621.

**Q.** What about the pSMAD3 (MFI/µg protein), TGFβ +; Tri-2A T cells; Donor 1 (MFI/µg protein) of the same substance?
**A.** The pSMAD3 (MFI/µg protein), TGFβ +; Tri-2A T cells; Donor 1 (MFI/µg protein) was 561.

**Q.** And the pSMAD3 (MFI/µg protein), TGFβ +; Tri-2A T cells; Donor 2 (MFI/µg protein)?
**A.** The pSMAD3 (MFI/µg protein), TGFβ +; Tri-2A T cells; Donor 2 (MFI/µg protein) was 488.

**Q.** What about the pSMAD3 (MFI/µg protein), TGFβ +; Tri-2A T cells; Donor 3 (MFI/µg protein) of the same substance?
**A.** The pSMAD3 (MFI/µg protein), TGFβ +; Tri-2A T cells; Donor 3 (MFI/µg protein) was 405.

**Q.** What about the pSMAD3 (MFI/µg protein), TGFβ +; Tri-IRES T cells; Donor 1 (MFI/µg protein) of the same substance?
**A.** The pSMAD3 (MFI/µg protein), TGFβ +; Tri-IRES T cells; Donor 1 (MFI/µg protein) was 942.

**Q.** What about the pSMAD3 (MFI/µg protein), TGFβ +; Tri-IRES T cells; Donor 2 (MFI/µg protein) of the same substance?
**A.** The pSMAD3 (MFI/µg protein), TGFβ +; Tri-IRES T cells; Donor 2 (MFI/µg protein) was 788.

**Q.** And the pSMAD3 (MFI/µg protein), TGFβ +; Tri-IRES T cells; Donor 3 (MFI/µg protein)?
**A.** The pSMAD3 (MFI/µg protein), TGFβ +; Tri-IRES T cells; Donor 3 (MFI/µg protein) was 643.

**Q.** What about the pSMAD3 (MFI/µg protein), TGFβ +; Tri-mSCV T cells; Donor 1 (MFI/µg protein) of the same substance?
**A.** The pSMAD3 (MFI/µg protein), TGFβ +; Tri-mSCV T cells; Donor 1 (MFI/µg protein) was 660.

**Q.** And the pSMAD3 (MFI/µg protein), TGFβ +; Tri-mSCV T cells; Donor 2 (MFI/µg protein)?
**A.** Its pSMAD3 (MFI/µg protein), TGFβ +; Tri-mSCV T cells; Donor 2 (MFI/µg protein) is 460.

**Q.** What about the pSMAD3 (MFI/µg protein), TGFβ +; Tri-mSCV T cells; Donor 3 (MFI/µg protein) of the same substance?
**A.** Its pSMAD3 (MFI/µg protein), TGFβ +; Tri-mSCV T cells; Donor 3 (MFI/µg protein) is 377.

From patent US20250382383A1
